The values that follow come from patent US20100009439A1.

Holding throughout (conditions): remark: other sources report otherwise
The target of experiment [1] is T1, purified full-length human IGF-I receptor (human), P08069. Briefly: ELISA, hybridoma supernatant on coated purified human IGF-I receptor.
For experiment [2], the target named is T1, purified full-length human IGF-I …. Briefly: ELISA titration on biotinylated human IGF-I receptor captured on streptavidin; non-linear regression for one-site binding.
The target is the same in experiment [3]. Briefly: ELISA titration on human IGF-I receptor, similar to that of the whole antibody.

B1: murine EM164 antibody (antibody, V domains shown)
VH: QVQLQQSGAELVKPGASVKLSCKASGYTFTSYWMHWVKQRPGQGLEWIGEINPSNGRTNYNEKFKRKATLTVDKSSSTAYMQLSSLTSEDSAVYYFARGRPDYYGSSKWYFDVWGAGTTVTVS
VL: DVLMTQTPLSLPVSLGDQASISCRSSQSIVHSNVNTYLEWYLQKPGQSPKLLIYKVSNRFSGVPDRFSGSGSGTDFTLRISRVEAEDLGIYYCFQGSHVPPTFGGGTKLEIKR
modifications: here or on the partner: biotinylated with PEO-maleimide-biotin in the captured format
The molecule B1 yielded an absorbance units (405 nm) (absorbance units) in experiment [1] of 1.2. This molecule also yielded a Kd in experiment [2] of 0.1 nM.

B2: Fab fragment of EM164 antibody (Fab, V domains shown)
VH: B1 VH
VL: B1 VL
modifications: here or on the partner: biotinylated with PEO-maleimide-biotin in the captured format
On to B2, for which, in experiment [3], the Kd came out at 0.3 nM.
